US20240425885

Assays:
Test in all cases: cleavage_in_vitro
[1] = system: OMNI-110 (metagenomic, unknown); conditions: TXTL; PAM NNRTNCNN
[2] = system: OMNI-119 (metagenomic, unknown); conditions: TXTL; PAM NNACNNNN
[3] = system: T1, OMNI-120 (metagenomic, unknown); conditions: TXTL; PAM NRVACNNN
T1 sequence: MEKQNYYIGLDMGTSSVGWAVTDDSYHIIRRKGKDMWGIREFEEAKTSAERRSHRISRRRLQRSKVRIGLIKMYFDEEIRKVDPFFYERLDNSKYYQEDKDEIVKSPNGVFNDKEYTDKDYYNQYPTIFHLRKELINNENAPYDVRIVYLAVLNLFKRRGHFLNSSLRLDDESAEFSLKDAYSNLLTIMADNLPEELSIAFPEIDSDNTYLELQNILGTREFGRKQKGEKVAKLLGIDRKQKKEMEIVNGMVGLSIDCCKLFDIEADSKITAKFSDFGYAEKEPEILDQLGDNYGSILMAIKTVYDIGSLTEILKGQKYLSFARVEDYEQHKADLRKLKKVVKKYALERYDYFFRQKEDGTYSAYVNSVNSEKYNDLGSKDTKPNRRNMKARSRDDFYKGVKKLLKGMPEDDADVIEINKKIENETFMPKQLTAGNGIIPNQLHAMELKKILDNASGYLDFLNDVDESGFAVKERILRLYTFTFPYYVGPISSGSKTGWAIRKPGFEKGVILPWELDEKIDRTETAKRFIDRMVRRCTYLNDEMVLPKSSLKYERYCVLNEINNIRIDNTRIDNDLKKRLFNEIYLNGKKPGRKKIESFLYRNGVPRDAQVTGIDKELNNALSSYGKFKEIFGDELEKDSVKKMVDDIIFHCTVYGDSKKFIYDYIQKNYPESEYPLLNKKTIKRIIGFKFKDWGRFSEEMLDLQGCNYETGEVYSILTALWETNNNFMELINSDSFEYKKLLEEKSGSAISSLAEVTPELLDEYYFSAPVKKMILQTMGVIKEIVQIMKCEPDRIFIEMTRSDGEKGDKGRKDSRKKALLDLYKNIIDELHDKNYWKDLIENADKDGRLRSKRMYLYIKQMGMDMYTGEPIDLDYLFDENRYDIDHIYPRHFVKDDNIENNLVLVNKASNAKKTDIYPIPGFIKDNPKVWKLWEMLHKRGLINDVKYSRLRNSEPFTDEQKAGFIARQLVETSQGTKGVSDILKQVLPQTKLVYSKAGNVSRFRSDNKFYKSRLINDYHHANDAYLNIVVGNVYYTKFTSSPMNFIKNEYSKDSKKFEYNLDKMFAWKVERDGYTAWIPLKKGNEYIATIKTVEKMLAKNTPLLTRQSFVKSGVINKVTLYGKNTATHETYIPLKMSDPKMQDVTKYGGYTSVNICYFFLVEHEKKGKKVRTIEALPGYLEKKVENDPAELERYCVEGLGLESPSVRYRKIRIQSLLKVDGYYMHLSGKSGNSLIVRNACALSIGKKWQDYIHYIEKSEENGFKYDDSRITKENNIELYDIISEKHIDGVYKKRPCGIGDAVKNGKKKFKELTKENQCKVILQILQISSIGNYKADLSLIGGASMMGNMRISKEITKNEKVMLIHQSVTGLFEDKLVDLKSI

[4] = system: T2, OMNI-109 (metagenomic, unknown); conditions: TXTL; PAM NNAARCNN
T2 sequence: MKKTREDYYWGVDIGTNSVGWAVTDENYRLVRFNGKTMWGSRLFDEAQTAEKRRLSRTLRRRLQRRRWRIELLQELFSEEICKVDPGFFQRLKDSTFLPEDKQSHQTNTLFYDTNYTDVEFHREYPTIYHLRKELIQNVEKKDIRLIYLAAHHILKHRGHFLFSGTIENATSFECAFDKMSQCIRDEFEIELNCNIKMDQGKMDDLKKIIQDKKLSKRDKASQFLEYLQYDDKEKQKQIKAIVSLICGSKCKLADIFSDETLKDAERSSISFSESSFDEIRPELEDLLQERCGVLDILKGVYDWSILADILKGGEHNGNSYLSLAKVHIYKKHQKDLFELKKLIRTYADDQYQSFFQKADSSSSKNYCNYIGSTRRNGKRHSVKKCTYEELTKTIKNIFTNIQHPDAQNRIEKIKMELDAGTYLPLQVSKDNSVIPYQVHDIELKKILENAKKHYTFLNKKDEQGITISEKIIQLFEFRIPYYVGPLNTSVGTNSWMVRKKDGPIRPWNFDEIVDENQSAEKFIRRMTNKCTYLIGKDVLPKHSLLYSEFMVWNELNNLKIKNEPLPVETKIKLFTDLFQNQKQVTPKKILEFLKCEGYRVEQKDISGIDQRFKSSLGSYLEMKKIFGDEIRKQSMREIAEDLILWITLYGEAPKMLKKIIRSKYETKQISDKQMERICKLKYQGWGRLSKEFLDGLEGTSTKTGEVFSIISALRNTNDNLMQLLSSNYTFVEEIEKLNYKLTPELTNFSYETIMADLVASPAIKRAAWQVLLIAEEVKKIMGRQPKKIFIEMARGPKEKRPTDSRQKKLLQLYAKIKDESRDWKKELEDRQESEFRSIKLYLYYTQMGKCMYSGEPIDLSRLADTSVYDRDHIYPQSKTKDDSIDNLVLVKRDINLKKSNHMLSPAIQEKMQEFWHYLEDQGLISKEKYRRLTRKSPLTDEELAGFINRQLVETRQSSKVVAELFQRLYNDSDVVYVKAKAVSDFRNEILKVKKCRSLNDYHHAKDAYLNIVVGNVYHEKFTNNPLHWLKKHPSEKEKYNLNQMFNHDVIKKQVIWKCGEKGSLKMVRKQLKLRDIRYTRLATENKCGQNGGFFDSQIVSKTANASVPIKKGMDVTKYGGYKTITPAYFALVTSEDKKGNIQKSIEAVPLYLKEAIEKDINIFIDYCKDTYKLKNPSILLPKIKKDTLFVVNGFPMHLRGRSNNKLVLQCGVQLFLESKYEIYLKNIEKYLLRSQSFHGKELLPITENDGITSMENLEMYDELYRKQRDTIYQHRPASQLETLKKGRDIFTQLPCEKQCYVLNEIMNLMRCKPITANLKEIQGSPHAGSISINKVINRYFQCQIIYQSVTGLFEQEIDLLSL

[5] = system: T3, OMNI-114 (metagenomic, unknown); conditions: TXTL; PAM NRGGACNN
T3 sequence: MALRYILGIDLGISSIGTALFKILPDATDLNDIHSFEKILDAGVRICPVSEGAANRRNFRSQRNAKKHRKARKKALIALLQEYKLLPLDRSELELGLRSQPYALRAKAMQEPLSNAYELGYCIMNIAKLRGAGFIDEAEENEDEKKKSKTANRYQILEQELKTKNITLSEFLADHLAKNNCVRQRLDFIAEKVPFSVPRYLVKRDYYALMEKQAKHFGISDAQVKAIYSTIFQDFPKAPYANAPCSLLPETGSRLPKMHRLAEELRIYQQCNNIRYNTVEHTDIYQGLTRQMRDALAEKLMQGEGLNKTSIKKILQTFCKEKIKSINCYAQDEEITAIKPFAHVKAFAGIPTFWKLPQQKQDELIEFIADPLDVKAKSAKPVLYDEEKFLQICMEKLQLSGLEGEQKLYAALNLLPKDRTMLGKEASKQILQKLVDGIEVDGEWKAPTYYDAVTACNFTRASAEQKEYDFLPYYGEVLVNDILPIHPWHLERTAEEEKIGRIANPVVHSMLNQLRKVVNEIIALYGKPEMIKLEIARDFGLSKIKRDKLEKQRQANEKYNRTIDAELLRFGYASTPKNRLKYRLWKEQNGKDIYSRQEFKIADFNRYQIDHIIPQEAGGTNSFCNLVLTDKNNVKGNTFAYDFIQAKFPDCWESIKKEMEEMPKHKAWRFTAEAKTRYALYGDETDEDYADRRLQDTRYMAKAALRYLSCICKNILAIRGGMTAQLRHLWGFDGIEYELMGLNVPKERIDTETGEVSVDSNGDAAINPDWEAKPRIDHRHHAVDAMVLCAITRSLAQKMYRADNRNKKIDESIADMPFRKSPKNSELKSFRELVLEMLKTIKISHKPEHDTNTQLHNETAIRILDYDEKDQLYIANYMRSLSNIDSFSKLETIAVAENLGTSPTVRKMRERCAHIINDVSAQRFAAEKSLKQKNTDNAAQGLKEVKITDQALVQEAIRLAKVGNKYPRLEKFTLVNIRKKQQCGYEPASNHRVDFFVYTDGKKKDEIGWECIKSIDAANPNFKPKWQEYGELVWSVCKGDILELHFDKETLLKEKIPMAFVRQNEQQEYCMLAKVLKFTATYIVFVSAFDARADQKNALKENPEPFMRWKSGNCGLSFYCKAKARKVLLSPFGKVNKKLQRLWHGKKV

[6] = system: T4, OMNI-116 (metagenomic, unknown); conditions: TXTL; PAM NRGGACNN
T4 sequence: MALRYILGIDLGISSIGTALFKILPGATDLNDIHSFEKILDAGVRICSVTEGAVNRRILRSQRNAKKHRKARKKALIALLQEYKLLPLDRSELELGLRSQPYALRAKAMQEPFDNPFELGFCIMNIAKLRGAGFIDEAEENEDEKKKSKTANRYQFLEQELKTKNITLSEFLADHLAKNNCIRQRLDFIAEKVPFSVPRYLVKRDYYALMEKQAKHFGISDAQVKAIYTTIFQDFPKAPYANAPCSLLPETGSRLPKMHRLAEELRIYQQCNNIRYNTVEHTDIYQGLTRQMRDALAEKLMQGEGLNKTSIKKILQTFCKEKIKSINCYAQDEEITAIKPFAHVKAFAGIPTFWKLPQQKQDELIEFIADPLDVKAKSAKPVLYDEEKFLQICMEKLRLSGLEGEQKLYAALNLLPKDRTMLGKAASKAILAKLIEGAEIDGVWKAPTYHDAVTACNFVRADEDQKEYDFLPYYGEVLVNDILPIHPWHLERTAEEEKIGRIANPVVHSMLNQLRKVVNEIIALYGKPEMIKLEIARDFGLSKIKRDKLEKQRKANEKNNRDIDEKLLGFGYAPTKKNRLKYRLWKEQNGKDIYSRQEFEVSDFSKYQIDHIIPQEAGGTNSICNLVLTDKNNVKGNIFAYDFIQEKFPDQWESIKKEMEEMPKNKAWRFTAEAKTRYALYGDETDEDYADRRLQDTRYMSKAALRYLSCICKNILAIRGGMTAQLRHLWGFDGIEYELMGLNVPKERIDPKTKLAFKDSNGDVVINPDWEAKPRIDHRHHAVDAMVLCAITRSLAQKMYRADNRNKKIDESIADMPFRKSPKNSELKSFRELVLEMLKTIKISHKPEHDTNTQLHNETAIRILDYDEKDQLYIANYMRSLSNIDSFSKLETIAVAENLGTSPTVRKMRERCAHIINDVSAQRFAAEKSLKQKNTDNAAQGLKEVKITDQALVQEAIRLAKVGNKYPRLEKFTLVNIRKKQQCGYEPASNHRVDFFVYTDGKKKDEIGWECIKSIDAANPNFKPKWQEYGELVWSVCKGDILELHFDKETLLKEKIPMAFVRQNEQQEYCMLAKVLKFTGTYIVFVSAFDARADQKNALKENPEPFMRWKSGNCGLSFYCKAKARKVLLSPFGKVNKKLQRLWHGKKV

Chain of OMNI-110 (metagenomic, unknown) (chain, as listed by the source): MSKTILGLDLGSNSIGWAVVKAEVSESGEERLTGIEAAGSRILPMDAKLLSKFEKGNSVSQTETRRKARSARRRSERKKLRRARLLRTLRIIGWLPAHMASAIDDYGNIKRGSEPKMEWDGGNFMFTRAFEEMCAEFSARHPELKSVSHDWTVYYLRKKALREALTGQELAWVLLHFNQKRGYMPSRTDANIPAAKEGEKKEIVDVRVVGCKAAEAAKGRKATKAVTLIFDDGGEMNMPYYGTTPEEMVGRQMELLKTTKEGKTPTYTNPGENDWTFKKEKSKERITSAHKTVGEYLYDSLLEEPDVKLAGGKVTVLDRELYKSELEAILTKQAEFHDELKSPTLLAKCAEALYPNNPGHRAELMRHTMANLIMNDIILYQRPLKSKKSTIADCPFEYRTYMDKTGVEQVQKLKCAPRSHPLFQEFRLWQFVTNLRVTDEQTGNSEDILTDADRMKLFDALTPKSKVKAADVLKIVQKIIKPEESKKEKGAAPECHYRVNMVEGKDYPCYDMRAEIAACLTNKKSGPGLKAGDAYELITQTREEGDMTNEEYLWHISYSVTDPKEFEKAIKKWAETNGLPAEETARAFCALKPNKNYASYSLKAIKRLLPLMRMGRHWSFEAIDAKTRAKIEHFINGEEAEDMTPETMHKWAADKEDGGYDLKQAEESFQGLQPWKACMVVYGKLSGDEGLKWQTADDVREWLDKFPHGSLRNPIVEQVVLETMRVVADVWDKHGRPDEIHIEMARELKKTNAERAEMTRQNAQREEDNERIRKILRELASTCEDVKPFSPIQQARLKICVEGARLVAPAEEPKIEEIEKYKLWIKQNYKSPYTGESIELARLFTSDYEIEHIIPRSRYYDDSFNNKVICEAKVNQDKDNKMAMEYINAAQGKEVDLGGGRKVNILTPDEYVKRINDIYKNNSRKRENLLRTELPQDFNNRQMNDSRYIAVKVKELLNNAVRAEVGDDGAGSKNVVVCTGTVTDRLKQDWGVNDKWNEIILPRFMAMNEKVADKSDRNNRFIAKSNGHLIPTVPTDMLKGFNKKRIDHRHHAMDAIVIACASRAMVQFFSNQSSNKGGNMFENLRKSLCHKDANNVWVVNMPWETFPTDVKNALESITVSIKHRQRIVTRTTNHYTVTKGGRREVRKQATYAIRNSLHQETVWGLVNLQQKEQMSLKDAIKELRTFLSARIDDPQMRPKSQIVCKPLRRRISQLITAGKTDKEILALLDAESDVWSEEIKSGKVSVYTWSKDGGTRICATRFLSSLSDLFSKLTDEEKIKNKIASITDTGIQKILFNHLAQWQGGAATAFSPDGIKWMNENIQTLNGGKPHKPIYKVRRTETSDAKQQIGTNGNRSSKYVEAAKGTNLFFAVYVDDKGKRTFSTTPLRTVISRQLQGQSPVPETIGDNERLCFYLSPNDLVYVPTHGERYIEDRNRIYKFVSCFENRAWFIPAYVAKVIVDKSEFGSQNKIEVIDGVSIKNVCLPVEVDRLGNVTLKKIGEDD
Chain of OMNI-119 (metagenomic, unknown) (chain, as listed by the source): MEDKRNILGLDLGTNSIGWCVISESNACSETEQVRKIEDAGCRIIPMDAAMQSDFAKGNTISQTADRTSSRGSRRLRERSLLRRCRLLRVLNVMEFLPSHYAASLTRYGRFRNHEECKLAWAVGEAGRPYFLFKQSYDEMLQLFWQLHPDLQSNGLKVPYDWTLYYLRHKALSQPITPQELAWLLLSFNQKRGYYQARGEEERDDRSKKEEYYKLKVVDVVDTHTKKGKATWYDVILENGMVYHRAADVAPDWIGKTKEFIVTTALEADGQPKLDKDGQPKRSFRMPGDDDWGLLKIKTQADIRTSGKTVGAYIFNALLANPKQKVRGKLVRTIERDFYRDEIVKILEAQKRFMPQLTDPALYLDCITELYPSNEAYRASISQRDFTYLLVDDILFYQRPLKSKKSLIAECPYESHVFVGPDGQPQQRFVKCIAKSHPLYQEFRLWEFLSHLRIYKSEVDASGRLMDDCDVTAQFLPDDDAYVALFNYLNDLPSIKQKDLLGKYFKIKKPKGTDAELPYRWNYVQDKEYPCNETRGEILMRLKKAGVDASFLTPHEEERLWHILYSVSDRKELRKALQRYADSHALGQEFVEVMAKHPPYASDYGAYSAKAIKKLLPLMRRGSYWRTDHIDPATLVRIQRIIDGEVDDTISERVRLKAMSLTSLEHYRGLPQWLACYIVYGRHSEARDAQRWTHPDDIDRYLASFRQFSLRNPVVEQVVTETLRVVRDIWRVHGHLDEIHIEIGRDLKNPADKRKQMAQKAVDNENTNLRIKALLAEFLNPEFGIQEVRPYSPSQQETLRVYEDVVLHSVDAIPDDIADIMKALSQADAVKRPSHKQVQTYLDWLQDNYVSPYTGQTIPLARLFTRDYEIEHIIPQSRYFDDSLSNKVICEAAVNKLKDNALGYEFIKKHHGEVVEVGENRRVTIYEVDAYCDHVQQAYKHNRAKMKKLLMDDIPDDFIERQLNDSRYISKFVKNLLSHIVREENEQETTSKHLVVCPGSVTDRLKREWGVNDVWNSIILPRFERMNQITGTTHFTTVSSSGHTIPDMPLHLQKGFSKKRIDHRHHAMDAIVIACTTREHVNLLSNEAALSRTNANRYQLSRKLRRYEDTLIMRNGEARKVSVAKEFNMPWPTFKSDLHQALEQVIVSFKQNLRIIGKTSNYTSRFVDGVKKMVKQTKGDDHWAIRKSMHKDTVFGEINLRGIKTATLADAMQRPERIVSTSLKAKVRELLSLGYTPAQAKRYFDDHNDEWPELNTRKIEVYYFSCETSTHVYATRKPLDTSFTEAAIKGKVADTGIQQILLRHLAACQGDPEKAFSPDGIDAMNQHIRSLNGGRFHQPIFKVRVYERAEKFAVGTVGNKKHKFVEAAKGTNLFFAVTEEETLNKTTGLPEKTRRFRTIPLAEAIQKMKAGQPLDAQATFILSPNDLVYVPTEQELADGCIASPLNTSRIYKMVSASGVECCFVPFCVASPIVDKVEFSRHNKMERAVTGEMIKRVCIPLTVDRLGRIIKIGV

For “GGAAGAGCAGAGCCUUGGUCUCGUUGUGAUUCGCUUCCGAAAGCAAGCGAAUCACAAUAAGGAUUAUUCCGUUGUGAAAACAUUUAAGUCGGGCCUCCUUCGGUUGGCUCGGCUUUUUUU / GGAAGAGCAGAGCCTTGGTCTCNNNNNNNN / NNNNNNNNGAGACCAAGGCTCTGCTCTTCC [T2 sgRNA 18 V1 ; T2 protospacer + 8N PAM library (pbPOS T2)]”, the activity (1-depletion score) [1] was 0.95.

“GGAAGAGCAGAGCCUUGGUCUCGUUGUGAUUUGCUGAGGAAACUAGCAAAUCACAAUAAGGAUUAUUCCGUUGUGAACACAUUAGGUCCCAACCCAUCGUCCUUUAACGGUGGGUUAUUUUUU / GGAAGAGCAGAGCCTTGGTCTCNNNNNNNN / NNNNNNNNGAGACCAAGGCTCTGCTCTTCC [T2 sgRNA 22 V1 ; T2 protospacer + 8N PAM library (pbPOS T2)]” gave an activity (1-depletion score) [2] of 0.97.

Work on “GGAAGAGCAGAGCCUUGGUCUCGUUUGAGAGCCUUGUUAGAAAUAACAAGGCGAGUGCAAAUAAGGUUUAACCGAAUUCACCGUUUAUGGACCGCAUUGUGCGGAUUUUAAAAAAGACUUUCAAAGUCUUUUUU / GGAAGAGCAGAGCCTTGGTCTCNNNNNNNN / NNNNNNNNGAGACCAAGGCTCTGCTCTTCC [T2 sgRNA 23 V1 ; T2 protospacer + 8N PAM library (pbPOS T2)]” yielded an activity (1-depletion score) [3] of 0.95.

Sequence “GGAAGAGCAGAGCCUUGGUCUCGUUUGAGAGUAGUGUAAGAAAUUACACUACAAGUUCAAAUAAAAAUUUAUUCUAAUCGCUCUUCGGAGCCUCCACAGGAGUGGAUUUAAGACUUGCUUCGGCGAGUCUUUUUU / GGAAGAGCAGAGCCTTGGTCTCNNNNNNNN / NNNNNNNNGAGACCAAGGCTCTGCTCTTCC [T2 sgRNA 17 V1 ; T2 protospacer + 8N PAM library (pbPOS T2)]” has an activity (1-depletion score) [4] of 0.94.

Sequence “GGAAGAGCAGAGCCUUGGUCUCGUUUUACUUGCCUGUCGAAAGAUAGGCAAUAAAACAAAUAUAAUUUCUUUUGAAAUUAUAUGUAAAAUGUUUAAAGCCCUCCUUUUCAGGGGGGCUUUUUU / GGAAGAGCAGAGCCTTGGTCTCNNNNNNNN / NNNNNNNNGAGACCAAGGCTCTGCTCTTCC [T2 sgRNA 20 V1 ; T2 protospacer + 8N PAM library (pbPOS T2)]” has an activity (1-depletion score) [5] of 0.96 and an activity (1-depletion score) [6] of 0.96.
